Laboratory results from article PMC12102759 (2025).

B1: PEX5 peptide 240-255 (Peroxisomal targeting signal 1 receptor), 16-mer library wild type / PEX14 Pex14 (PEX14 PEX14, residues 16-84) (parent complex)
chain 1: AEQWAAEFIQQQGTSD
chain 2: TPGSENVLPREPLIATAVKFLQNSRVRQSPLATRRAFLKKKGLTDEEIDMAFQQSGTAADEPSSLGPAT
B2: PAIP1 peptide 124-139 (Polyadenylate-binding protein-interacting protein 1), 16-mer library wild type / PABPC1 PABC (PABPC1 PABC domain, residues 544-623) (parent complex)
chain 1: LMSKLSVNAPEFYPSG
chain 2: PLTASMLASAPPQEQKQMLGERLFPLIQAMHPTLAGKITGMLLEIDNSELLHMLESPESLRSKVDEAVAVLQAHQAKEAA

Variants of: B1
Assay: proteomic peptide phage display deep mutational scan (ProP-PD DMS): M13 P8 16-mer library selected against immobilised GST-tagged bait for four days (rounds), NGS of the eluted pools per day and pseudo-replica; bait immobilised on MaxiSorp plates (10 µg), library pre-cleared on GST, 2 h binding at 4 °C, five washes; one round per day, days 1-4; value from days 2 and 3

Row | Variant | screen value
1 | chain 1 AEQWAAEFIFQQGTSD [chain 1 Q10F] | 0.00183 average fractional NGS count over selection days 2 and 3 (reads of this peptide / all reads for the bait, averaged over …
2 | chain 1 AEQWAAEFIHQQGTSD [chain 1 Q10H] | 0.00189 average fractional NGS count over selection days 2 and 3 (reads of this peptide / all reads for the bait, averaged over …
3 | chain 1 AEQWAAEFIYQQGTSD [chain 1 Q10Y] | 0.00306 average fractional NGS count over selection days 2 and 3 (reads of this peptide / all reads for the bait, averaged over …
4 | chain 1 AEQWAAEFIIQQGTSD [chain 1 Q10I] | 0.00252 average fractional NGS count over selection days 2 and 3 (reads of this peptide / all reads for the bait, averaged over …
5 | chain 1 AEQWAAEFIDQQGTSD [chain 1 Q10D] | 0.000871 average fractional NGS count over selection days 2 and 3 (reads of this peptide / all reads for the bait, averaged over …
6 | chain 1 AEQWAAEFIWQQGTSD [chain 1 Q10W] | 0.0034 average fractional NGS count over selection days 2 and 3 (reads of this peptide / all reads for the bait, averaged over …
7 | chain 1 AEQWAAEFIEQQGTSD [chain 1 Q10E] | 0.0048 average fractional NGS count over selection days 2 and 3 (reads of this peptide / all reads for the bait, averaged over …
8 | chain 1 AEQWAAEFFQQQGTSD [chain 1 I9F] | 0.00108 average fractional NGS count over selection days 2 and 3 (reads of this peptide / all reads for the bait, averaged over …
9 | chain 1 AEQWAAEFGQQQGTSD [chain 1 I9G] | 0.000546 average fractional NGS count over selection days 2 and 3 (reads of this peptide / all reads for the bait, averaged over …
10 | chain 1 AEQWAAEFRQQQGTSD [chain 1 I9R] | 0.00363 average fractional NGS count over selection days 2 and 3 (reads of this peptide / all reads for the bait, averaged over …
11 | chain 1 AEQWAAEFWQQQGTSD [chain 1 I9W] | 0.00339 average fractional NGS count over selection days 2 and 3 (reads of this peptide / all reads for the bait, averaged over …
12 | chain 1 AEQWAAEFIQQQGHSD [chain 1 T14H] | 0.00166 average fractional NGS count over selection days 2 and 3 (reads of this peptide / all reads for the bait, averaged over …
13 | chain 1 AEQWAAEFIQQQGISD [chain 1 T14I] | 0.00075 average fractional NGS count over selection days 2 and 3 (reads of this peptide / all reads for the bait, averaged over …
14 | chain 1 AEQWAAEFIQQQGASD [chain 1 T14A] | 0.00163 average fractional NGS count over selection days 2 and 3 (reads of this peptide / all reads for the bait, averaged over …
15 | chain 1 AEQWAAEWIQQQGTSD [chain 1 F8W] | 0.00184 average fractional NGS count over selection days 2 and 3 (reads of this peptide / all reads for the bait, averaged over …
16 | chain 1 AEQWAAEFIQGQGTSD [chain 1 Q11G] | 0.00455 average fractional NGS count over selection days 2 and 3 (reads of this peptide / all reads for the bait, averaged over …
17 | chain 1 AEQWAAEFIQWQGTSD [chain 1 Q11W] | 0.000954 average fractional NGS count over selection days 2 and 3 (reads of this peptide / all reads for the bait, averaged over …
18 | chain 1 AEQWAAEFIQVQGTSD [chain 1 Q11V] | 0.0012 average fractional NGS count over selection days 2 and 3 (reads of this peptide / all reads for the bait, averaged over …
19 | chain 1 AEQWAAEFIQSQGTSD [chain 1 Q11S] | 0.000902 average fractional NGS count over selection days 2 and 3 (reads of this peptide / all reads for the bait, averaged over …
20 | chain 1 REQWAAEFIQQQGTSD [chain 1 A1R] | 0.000918 average fractional NGS count over selection days 2 and 3 (reads of this peptide / all reads for the bait, averaged over …
21 | chain 1 AEGWAAEFIQQQGTSD [chain 1 Q3G] | 0.000648 average fractional NGS count over selection days 2 and 3 (reads of this peptide / all reads for the bait, averaged over …
22 | chain 1 AEDWAAEFIQQQGTSD [chain 1 Q3D] | 0.000539 average fractional NGS count over selection days 2 and 3 (reads of this peptide / all reads for the bait, averaged over …

Row | Variant | screen value
23 | chain 1 AELWAAEFIQQQGTSD [chain 1 Q3L] | 0.00235 average fractional NGS count over selection days 2 and 3 (reads of this peptide / all reads for the bait, averaged over …
24 | chain 1 AEQWWAEFIQQQGTSD [chain 1 A5W] | 0.000742 average fractional NGS count over selection days 2 and 3 (reads of this peptide / all reads for the bait, averaged over …
25 | chain 1 AEQWNAEFIQQQGTSD [chain 1 A5N] | 0.00753 average fractional NGS count over selection days 2 and 3 (reads of this peptide / all reads for the bait, averaged over …
26 | chain 1 AEQWEAEFIQQQGTSD [chain 1 A5E] | 0.0005 average fractional NGS count over selection days 2 and 3 (reads of this peptide / all reads for the bait, averaged over …
27 | chain 1 AEQWLAEFIQQQGTSD [chain 1 A5L] | 0.00177 average fractional NGS count over selection days 2 and 3 (reads of this peptide / all reads for the bait, averaged over …
28 | chain 1 AEQWAAEFIQQQTTSD [chain 1 G13T] | 0.000744 average fractional NGS count over selection days 2 and 3 (reads of this peptide / all reads for the bait, averaged over …
29 | chain 1 AEQWAAEFIQQQSTSD [chain 1 G13S] | 0.00151 average fractional NGS count over selection days 2 and 3 (reads of this peptide / all reads for the bait, averaged over …
30 | chain 1 AEQWAAEFIQQQPTSD [chain 1 G13P] | 0.00036 average fractional NGS count over selection days 2 and 3 (reads of this peptide / all reads for the bait, averaged over …
31 | chain 1 AEQWAAYFIQQQGTSD [chain 1 E7Y] | 0.00419 average fractional NGS count over selection days 2 and 3 (reads of this peptide / all reads for the bait, averaged over …
32 | chain 1 AEQWAAGFIQQQGTSD [chain 1 E7G] | 0.00104 average fractional NGS count over selection days 2 and 3 (reads of this peptide / all reads for the bait, averaged over …
33 | chain 1 AEQWAAWFIQQQGTSD [chain 1 E7W] | 0.00666 average fractional NGS count over selection days 2 and 3 (reads of this peptide / all reads for the bait, averaged over …
34 | chain 1 AEQWAAAFIQQQGTSD [chain 1 E7A] | 0.00276 average fractional NGS count over selection days 2 and 3 (reads of this peptide / all reads for the bait, averaged over …
35 | chain 1 AEQWAAEFIQQSGTSD [chain 1 Q12S] | 0.00474 average fractional NGS count over selection days 2 and 3 (reads of this peptide / all reads for the bait, averaged over …
36 | chain 1 AEQWAAEFIQQPGTSD [chain 1 Q12P] | 0.00104 average fractional NGS count over selection days 2 and 3 (reads of this peptide / all reads for the bait, averaged over …
37 | chain 1 AEQWAAEFIQQIGTSD [chain 1 Q12I] | 0.00133 average fractional NGS count over selection days 2 and 3 (reads of this peptide / all reads for the bait, averaged over …
38 | chain 1 AEQWAAEFIQQMGTSD [chain 1 Q12M] | 0.000477 average fractional NGS count over selection days 2 and 3 (reads of this peptide / all reads for the bait, averaged over …
39 | chain 1 AEQWAYEFIQQQGTSD [chain 1 A6Y] | 0.00438 average fractional NGS count over selection days 2 and 3 (reads of this peptide / all reads for the bait, averaged over …
40 | chain 1 AEQWAVEFIQQQGTSD [chain 1 A6V] | 0.00173 average fractional NGS count over selection days 2 and 3 (reads of this peptide / all reads for the bait, averaged over …
41 | chain 1 AEQWAAEFIQQQGTVD [chain 1 S15V] | 0.000997 average fractional NGS count over selection days 2 and 3 (reads of this peptide / all reads for the bait, averaged over …
42 | chain 1 AEQWAAEFIQQQGTYD [chain 1 S15Y] | 0.000382 average fractional NGS count over selection days 2 and 3 (reads of this peptide / all reads for the bait, averaged over …
43 | chain 1 AMQWAAEFIQQQGTSD [chain 1 E2M] | 0.00435 average fractional NGS count over selection days 2 and 3 (reads of this peptide / all reads for the bait, averaged over …
44 | chain 1 AHQWAAEFIQQQGTSD [chain 1 E2H] | 0.00822 average fractional NGS count over selection days 2 and 3 (reads of this peptide / all reads for the bait, averaged over …

Variants of: B2
Assay: as above

Row | Variant | screen value
45 | chain 1 LMSKLTVNAPEFYPSG [chain 1 S6T] | 0.0012 average fractional NGS count over selection days 2 and 3 (reads of this peptide / all reads for the bait, averaged over …
46 | chain 1 LMSKLSVNAYEFYPSG [chain 1 P10Y] | 0.000572 average fractional NGS count over selection days 2 and 3 (reads of this peptide / all reads for the bait, averaged over …
47 | chain 1 LMSKLSVNAPEFYPFG [chain 1 S15F] | 0.00282 average fractional NGS count over selection days 2 and 3 (reads of this peptide / all reads for the bait, averaged over …
48 | chain 1 LMSKLSVNAPEFYPQG [chain 1 S15Q] | 0.000451 average fractional NGS count over selection days 2 and 3 (reads of this peptide / all reads for the bait, averaged over …
49 | chain 1 LMSKLSVNAPEFYPSR [chain 1 G16R] | 0.000806 average fractional NGS count over selection days 2 and 3 (reads of this peptide / all reads for the bait, averaged over …
50 | chain 1 LMSKLSVNAPEFYPSW [chain 1 G16W] | 0.000405 average fractional NGS count over selection days 2 and 3 (reads of this peptide / all reads for the bait, averaged over …
51 | chain 1 LMSKLSVNAPEFYVSG [chain 1 P14V] | 0.000836 average fractional NGS count over selection days 2 and 3 (reads of this peptide / all reads for the bait, averaged over …
52 | chain 1 LMMKLSVNAPEFYPSG [chain 1 S3M] | 0.000284 average fractional NGS count over selection days 2 and 3 (reads of this peptide / all reads for the bait, averaged over …
53 | chain 1 LMNKLSVNAPEFYPSG [chain 1 S3N] | 0.000537 average fractional NGS count over selection days 2 and 3 (reads of this peptide / all reads for the bait, averaged over …
54 | chain 1 LMAKLSVNAPEFYPSG [chain 1 S3A] | 0.00075 average fractional NGS count over selection days 2 and 3 (reads of this peptide / all reads for the bait, averaged over …
55 | chain 1 LMSNLSVNAPEFYPSG [chain 1 K4N] | 0.0102 average fractional NGS count over selection days 2 and 3 (reads of this peptide / all reads for the bait, averaged over …
56 | chain 1 LMSLLSVNAPEFYPSG [chain 1 K4L] | 0.0004 average fractional NGS count over selection days 2 and 3 (reads of this peptide / all reads for the bait, averaged over …
